The record followed here is US12338277.

Some results are limits rather than exact numbers.

What all share (assay): cell-based or functional assay
Test [1] deals with HIV-1 envelope glycoprotein of pseudovirus 928-28 (clade CRF02_AG) (HIV-1).
Test [2] addresses HIV-1 envelope glycoprotein of pseudovirus WITO4160.33 (clade B) (HIV-1).
The target in test [3] is HIV-1 envelope of pseudovirus ZM233M.PB6 (HIV-1).
The target in test [4] is HIV-1 envelope glycoprotein of pseudovirus ZM135M.PL10a (clade C) (HIV-1).
The target in test [5] is HIV-1 envelope glycoprotein of pseudovirus CNE52 (clade BC) (HIV-1).
Test [6] deals with HIV-1 envelope glycoprotein of pseudovirus CNE30 (clade BC) (HIV-1).
The target of test [7] is HIV-1 envelope glycoprotein of pseudovirus 6244_13_B5_4576 (clade B (T/F)) (HIV-1).
In test [8] the target is HIV-1 envelope glycoprotein of pseudovirus 263-8 (clade CRF02_AG) (HIV-1).
The target of test [9] is HIV-1 envelope glycoprotein of pseudovirus TRJO4551.58 (clade B) (HIV-1).
Test [10] addresses HIV-1 envelope glycoprotein of pseudovirus BJOX009000.02.4 (clade CRF01_AE) (HIV-1).
Test [11] concerns the target HIV-1 envelope glycoprotein of pseudovirus X1193 c1 (clade G) (HIV-1).
Test [12] addresses HIV-1 envelope glycoprotein of pseudovirus ZM233M.PB6 (clade C) (HIV-1).
Test [13] concerns the target HIV-1 envelope glycoprotein of pseudovirus T278-50 (clade CRF02 AG) (HIV-1).
Test [14] concerns the target HIV-1 envelope glycoprotein of pseudovirus X1254_c3 (clade G) (HIV-1).
The target of test [15] is HIV-1 envelope glycoprotein of pseudovirus CNE58 (clade BC) (HIV-1).
The target in test [16] is HIV-1 envelope glycoprotein of pseudovirus A07412m1.vrv12 (clade D) (HIV-1).
In test [17] the target is HIV-1 envelope glycoprotein of pseudovirus 235-47 (clade CRF02_AG) (HIV-1).
For test [18], the target named is HIV-1 envelope glycoprotein of pseudovirus Ce1086_B2 (clade C (T/F)) (HIV-1).
The target in test [19] is HIV-1 envelope of pseudovirus X2088_c9 (HIV-1).
Test [20] has as its target HIV-1 envelope of pseudovirus X2131_C1_85 (HIV-1).
Test [21] addresses HIV-1 Env of pseudovirus X2088_c9 (HIV-1).

10-1074 (antibody), sequence (VH): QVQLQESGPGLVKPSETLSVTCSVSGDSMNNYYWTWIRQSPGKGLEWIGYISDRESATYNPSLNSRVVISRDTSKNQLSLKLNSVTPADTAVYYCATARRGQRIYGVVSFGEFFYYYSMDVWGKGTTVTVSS
10-1074 (antibody), sequence (V domain): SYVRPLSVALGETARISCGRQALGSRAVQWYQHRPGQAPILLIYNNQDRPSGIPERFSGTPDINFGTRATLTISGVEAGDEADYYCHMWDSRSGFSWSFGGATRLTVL
10-996 (antibody), sequence (VH): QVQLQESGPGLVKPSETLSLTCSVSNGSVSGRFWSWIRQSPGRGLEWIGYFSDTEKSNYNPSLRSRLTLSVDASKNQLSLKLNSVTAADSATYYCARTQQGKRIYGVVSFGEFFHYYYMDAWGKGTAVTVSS
10-996 (antibody), sequence (VL): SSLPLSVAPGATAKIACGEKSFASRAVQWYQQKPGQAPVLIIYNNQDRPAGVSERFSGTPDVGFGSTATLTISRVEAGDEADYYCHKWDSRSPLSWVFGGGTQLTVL

With PGT121 (antibody), the IC50 in the TZM-bl neutralization assay was above 50 µg/mL in test [1]; 6.01 µg/mL in test [2]; 5.88 µg/mL in test [4]; 32.9 µg/mL in test [5]; 0.559 µg/mL in test [6]; 1.88 µg/mL in [7]. Further, the IC50 in the TZM-bl neutralization assay in test [8] is 24.6 µg/mL; in test [9], 35.3 µg/mL; in test [10], 37.3 µg/mL; in test [11], 0.202 µg/mL; in test [12], 8.98 µg/mL; in [13], above 50 µg/mL. In addition, the IC50 in the TZM-bl neutralization assay is 0.199 µg/mL in [14]; above 50 µg/mL in test [15]; 0.406 µg/mL in [16]; 1.68 µg/mL in test [17]; 0.006 µg/mL in test [18]. This substance came in with an IC50 (TZM-bl neutralization) in [3] of 1.45 µg/mL.

With 10-996 (antibody), the results for the IC50 (TZM-bl neutralization) in test [19] and in test [20] were 0.002 µg/mL and 0.019 µg/mL, respectively. The same substance registered an IC80 (TZM-bl neutralization) in test [21] of 0.014 µg/mL.

10-1074 (antibody): the IC50 in the TZM-bl neutralization assay in test [1] is 4.7 µg/mL; in [2], 2.11 µg/mL; in test [4], 0.367 µg/mL; in test [5], 13.1 µg/mL; in test [6], 1.2 µg/mL; in test [7], 0.922 µg/mL. The IC50 in the TZM-bl neutralization assay in [8] was 6.53 µg/mL; in test [9], 0.634 µg/mL; in test [10] it was above 50 µg/mL; in [11], 0.475 µg/mL; in test [12] it was 0.349 µg/mL; in [13] it was 18.3 µg/mL. The IC50 in the TZM-bl neutralization assay was 0.297 µg/mL in [14]; 0.968 µg/mL in [15]; 0.048 µg/mL in test [16]; 0.163 µg/mL in test [17]; above 50 µg/mL in test [18]. Besides, the IC50 (TZM-bl neutralization) in test [3] was 0.06 µg/mL; in test [19], 0.003 µg/mL; in [20], 0.016 µg/mL. The same substance had an IC80 (TZM-bl neutralization) in test [21] of 0.014 µg/mL.
